The values that follow come from a protein production outcome set (Wang et al. 2014).

The nature of the series: label from the status in PepcDB records.

As for “MFIERLVALLLLFAGEFAYLRIADRFNIIDRPNQRSSHKKNVLRGGGIIFLLGVWMYAFLNTTGYPLFIGGMTLIASVAFIDDVCSLSPRFRFFVQFVAMFLLLQEAGMLVENKVWFLLPTMILGVCIINAYNFMDGINGMTGAFSLMVLFTFWLLNREMAFIDATLIELLMISALVFCFFNFRNQAICFAGDVGSVGMAYCVIFILLKLVLFTGNVTYLLFLVVYGIDTVLTIFHRLLLHENLLQPHRKHLFQLLANEGGHSHVTVSITYVLLQLAISLGYIYLPIDKWLYSVIVTIGLVTAYLIIERKLYPKHKEYLKSLSCAVMDEGYSEKCLRNEN”, the protein production result was “failed”. Under “MFIGIYNRSVIVTYMGIASAMVGMYLADKHDIRYAILCLVIAGVCDLFDGKIARMCKRTEDEKLFGIQLDSLADVICFSALPISIFYGLGLNKWYHVVIYTAFTLAAITRLGFFNIKVMDSNRDKPVDYYSGLPVTCSAMIFPLFWLLSFCLDRHIFLLIYTIIIAVVAFLFVANIKIKKPKGIAYGVFVVLAVLMSLGIIFIGV” stands “failed”. Under “MFIIIGDLIAFVISVLVTLIIASVPVWVAAKIVAKRSTFGQAVAATLLSLIIFFILLFVFSIFTPFIGGIFGFIGALWVFRKVYNIGWVDSLALTIIAIFIAIMIYIILGAFLFPVIHTSMIHEHAVVTSIIV” stands “failed”; under “MFIPAAQSAYRTLRKTQPRVRLNAIFKNGYSSKVEYKPIRSVLVANRGEIAIRVFRACTELGIKSVAVYSEQDKMHMHRQKADESYIVGKGLPPVEAYLNIPELIRVCKENDVDAVHPGYGFLSERSDFAQAVIDAGLRFIGPSPEVVQKMGDKVAARVAAIEAGVPIVPGTDGPVTTKEEALEFCKKHGLPVIFKAAYGGGGRGMRVVRKMEDVEESFQRASSEAKAAFGNGAMFIEKFIERPRHIEVQLLGDKAGNVVHLYERDCSVQRRHQKVVEIAPAPRLPIEIRDKMTEAAVRLARHVGYENAGTVEFLCDESGNFYFIEVNARLQVEHTVTEEITGIDLVQSQIRVAEGMTLPELGYTQDKIVPRGYAIQCRVTTEDPANDFQPNTGRLEVFRSGEGMGIRLDSASAYAGAIISPYYDSLLVKVISHASDLQSSASKMNRALREFRIRGVKTNIPFLLNVLENQKFLHGVLDTYFIDEHPQLFKFKPSLNRAQKLLNYMGEVLVNGPQTPLATTLKPALVSPHVPEVPLDLSPEAIEREERGEAKVTEPPKGLREVLVCEGPEAFAKEVRNRKELLLMDTTFRDAHQSLLATRVRSHDLLKISPYVTHKFNNLYSLENWGGATFDVALRFLHECPWERLEEMRKRIPNIPFQMLLRGANAVGYTSYPDNVVYKFCELAVQTGMDIFRVFDSLNYLPNLILGMEAAGKAGGVVEAAISYTGDVSDPKRTKYDLKYYTNLADELVKAGTHVLCIKDMAGLLKPESARLLITAIRDKHPDIPIHIHTHDTSGAGVASMLACANAGADVVDVAVDSMSGMTSQPSMGAVVASLQGTPLDTNLDLRTVSEYSAYWEQTRTLYAPFECTTTMRSGNADVYLNEIPGGQYTNLQFQAFSLGLGDFFEDVKKAYREANLLLGDIIKVTPSSKVVGDLAQFMVQNDLTADQVLERAEELSFPKSVVEYLQGSIGIPHGGFPEPLRSRVLKDMPRIEGRPGAELKDLDFDKLKKELQESHTCVTNRDVMSAALYPQVTNDFLNFREKYGPVDKLDTRIFLTGPKVGEEFDVPLERGKTLSVKALAVSADLKPNGIREVFFELNGQLRAVHILDKEAVKEIHVHPKANKSNKSEVGAPMPGTVIDIRVKVGDKVEKGQPLVVLSAMKMEMVVQSPLAGVVKKLEIANGTKLEGEDLIMIIE”, “failed”; under “MFIREEEQMKRMIITIGRQSGSSGRKVGELLAERLSLPLYGKAELQKIAEGTDDYEEVQAFYEEEPVNSLLYAIAMSQFEQEVGRIPFQRIRELASKESCIIIGRCAGHIFREDPEAVRVFIHADPKIRVQRIMEREGLSETKAKKFLEDTDSRRASFHKYYTKQEWGLAQDYELCLDSGVLGIEGTVEVLTEYLRFRGFLGNE”, “failed”. As for “MFISCIILINYSYIFGKNIRYLYEFKVIWKSNNSLILFFIEFDRNFMTIKFKLFKCRRLNILIELINIENYFRNGNILCFIFNIPSIPRNLLINVFLTSSNKVNISIQGLKLEHHHHHH”, the entry is “failed”. Turning to “MFITTEGINAGYTIKDVVEATSSLMLASEDIDKYNMFDQLFDEAKQKLKKKADLLEGDGIIGLKYNTEVVEVNGAPKFLVVHGYGTVILIDK”, the protein production entry is recorded as “not failed”.

As to “MFKGDMNKKRAKALQKVKEAITLHGGQTILSTGITGDDARLAKAVCEAGVKLLEPNHPALALARGHKGVSNMHAAEQIRHEITNSQMAEAVHGVRNVVPDDIFITVGIAGGFTETLPVPLSEKEILEIARAGADGLHTHKSDWDDLQDIVNLAHQYGLTVDAYIGHPDDLHTFGIPARTPEEVASVAKRMQDIGVDMIGLMTGMSYEGVAAGDIPQMIKDRLRALVGAVDVPTLAEGGINLANAKAFKDTGVNILVVGTAIDNMVCNAAKEAVTPFIVH”, the protein production result is reported as “not failed”. As for “MFKPEEMVKIELISLARYRDIIMTYLHERGVVQLEEVPIEDIQHDAPNEYYRKATSYSITMGRLVDTLKGFLPPRKTSIKEFIFPKEREKRVYTYRGIEDLVKDVEKFLSEVEPKIREVETQLTAINNRIANIREIINTLELLSSLNIEIEYLIPGSFLAIEVGKIERERVEKLIGELKNELGDKVFILRRDLGTISLLVVVTLKEFQGKLTSILAKYGFEKVEIPRERGHPRELIPKYNELLKEEMKKLEEIRKKGREFAEKYYEDLVFYKELMDNERDKANYLSYLARTELTVALVGWLPKKNVEEVVEGIKNLTGGKVYINIREPEPNEIEEVPVKLKNPEFISQFEMLTEMYGVPKYNELDPTPILAFTYSFFFGFMLTDFMYGLLLGIVSALLVKGHSKMKDGTWKFAKIMLWSSVFTMLLGALFGSYFGNALDMAGFKVPRIMDAMEEALTVLIIALAIGLGHLFTGYVLGFIVKWKNGDKVGAILDQLSWILIILGVTLFAISSRIDLPKLAWMSVFGAGAVLFIIGEFKNNGLMALLLVISDFFGFVGNWLSYARLMALALATAGIALVINIMVQMIWGFKIGPVPLGIIVGAIVFIGGHIFSTAINALGAFVHALRLHYVEFFGTFYSGEGRRFEPFAARREISELKIEKPGGE”, the protein production result is given as “failed”. As for “MFKVLQCLTIDHDYRYTAAAVVVCMLGSFVTMRLFSKARLATGLQKVNWLFLAGVNGGAAIWTTHFVAMLGYVAAGDVGYDPYLTGLSLLIAITTTTAGFGISAYGGRSVLVEAGGTILGLGIAAMHYTGMAAYNVQGMIFWDQAYVIASLVLGSVLGAIAVNRIARPLNRFCQYSAVAFLILAIASMHYTGMASMSFAFDPRIIIPENLLPPAIMGGGAIAVTLLLLALGLSTYVIDAQSTQQAVARYRHLSLHDPLTGIPNRAAFIEHLNRRTRHISMGAHTALLSIDLDRFKEINDVHGHAAGDAVLRAIADRASSVLKAGEFLARMGGDEFVAMTHSYYTRADGAEFAQRLIEQISKPVEWNGQTFSVGASVGISVRNTGSIDADTLMAQADVAMYRAKSATSDTICFYDKSMDEAARARNALAIAMRSGLANNEFELYYQQQNDTKSGSIVGFEALLRWKHPERGMVSPVEFIPIAEQTGFIVELGEWVLREACAQAARWKKSLAIAVNVAPQQLADNDFPDKVERILAETGLAPERLELEITEGSIIADHRHALVTIRKLKSLGVKIAMDDYGTGYSSLSTLQSFPFDKIKIDRAFIDGLSTNVQSEAIVRSTLILAHSLNIPVLAEGVETKAHIEFLRREGCLQVQGFFFGKPGPLTSIANLVDDTFLSAEDETEEASGRRYIKVVR”, the protein production result is “failed”. Under “MFLGELTERPVSLYAAAVLRIGYGLLYLAFLLREFPHRDEIWGPGSPWTPELARQLFDQTGWVSILTLSDGRAYFEACYALALVTCALFLLGWRTRAVSVLFAVVVASFHARAIFMTDGGDNLVLLMAVYLVFTACGRRWSLDARRTRLRAGASPAASPPARQEADGFRRQLGASRRTLTAVLHNCGMFVIAAQVCFLYGSAGLYKVQGGSWGNGTALHYVLNLDLFRPWPELSLLTDEHDVLMAIACYLTVLLQVAFPFVLFGRLKYPVLTVLLGMHLGIAVLLGLPLFSGAMIVADAVFLPDRCYLLLGRLWRRAGRRTGSTEAGAPARGESAFLPPQSAVSSPRTAAAPVRGRRA” stands “failed”.
